In test [1] the target is PAI-1 (immobilized antigen of the P-ELISA of Figure 13, species not stated). Briefly: P-ELISA on immobilized biotin-labeled PAI-1 (species not stated), antibody with EDTA, A450. In general terms: In an ELISA, binding on a coated surface is turned into a signal by an enzyme label.
Test [2] concerns the target PAI-1 (antigen of Example 11, species not stated). Briefly: SPR-type biosensor, 25 C, global 1:1 fit (format for mP-1 not given).

PAI-1 (antigen of Example 11, species not stated), sequence (P05121 24-402): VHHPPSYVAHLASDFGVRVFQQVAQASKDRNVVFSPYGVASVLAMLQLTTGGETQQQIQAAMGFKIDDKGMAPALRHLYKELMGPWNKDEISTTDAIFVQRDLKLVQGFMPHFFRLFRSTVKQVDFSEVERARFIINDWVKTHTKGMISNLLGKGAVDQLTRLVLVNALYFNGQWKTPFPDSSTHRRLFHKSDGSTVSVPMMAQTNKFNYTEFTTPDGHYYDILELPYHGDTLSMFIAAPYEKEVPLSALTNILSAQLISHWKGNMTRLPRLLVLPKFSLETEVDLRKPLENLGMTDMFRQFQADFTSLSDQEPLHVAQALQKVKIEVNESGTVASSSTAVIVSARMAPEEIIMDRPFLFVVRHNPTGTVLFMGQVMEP
PAI-1 (immobilized antigen of the P-ELISA of Figure 13, species not stated), sequence (P05121 24-402): as above

B1: murine monoclonal antibody 33B8 (antibody, V domains shown)
VH: QIQLVQSGPELKKPGKTVTISCKASGYTFTNYGMNWVKQAPGKGLKWMGWINTYTGEPTYTDDFKGRFAFSLDTSASTAYLQISNLKNEDTATYFCAKDVSGFVFDYWGQGTTVTVSS
VL: DIVMTQSPSSLAVSVGEKVTMSCKSSQSLLNIIKQKNCLAWYQQKPGQSPKLLIYWASTRESGVPDRFTGSGSGTDFTLTISSVKAEDLAVYYCQQYYSYPYTFGGGTKLEIK
By EC50 (read off the curve) is commonly meant the concentration that produces a half-maximal response. Lower therefore signals a more potent agent. As a reminder, the Kd is the concentration at which binding is half-saturated. One may read the koff as a measure of how fast the partners let go of each other. The kon is the second-order rate constant of association. High values mean fast association, low ones slow association. In test [1], B1 displayed an EC50 (read off the curve) of 0.1 µg/mL. Moreover, in test [2], the equilibrium dissociation constant (Kd) is 8.01 nM, the off-rate (koff) was determined as 0.00314 s⁻¹ and the kon worked out at 393000 M⁻¹ s⁻¹.
